1 molecule from PMC5584245 can be followed below.

Assay [1] concerns the target hG7-BM1 (hVH-B1, hVL-B1) (human). Kind of assay: SPR; Biacore X100; CD24-GST flowed over immobilized antibody; 1:1 binding model; procedure as in ref. 45. On the technique in general: In SPR one partner is held on a chip, and binding of the other changes the refractive index at the surface.
The target is the same in assay [2]. Described as above. This is another data set of the same source.

Read-outs that look alike come from different tables or passages of the source.

hG7-BM1 (hVH-B1, hVL-B1) (human), sequence (heavy, as listed by the source, chain 1 of 2): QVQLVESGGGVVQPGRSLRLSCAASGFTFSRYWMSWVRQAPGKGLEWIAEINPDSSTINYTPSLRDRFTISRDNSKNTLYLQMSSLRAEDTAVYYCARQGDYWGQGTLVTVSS
hG7-BM1 (hVH-B1, hVL-B1) (human), sequence (light, as listed by the source, chain 2 of 2): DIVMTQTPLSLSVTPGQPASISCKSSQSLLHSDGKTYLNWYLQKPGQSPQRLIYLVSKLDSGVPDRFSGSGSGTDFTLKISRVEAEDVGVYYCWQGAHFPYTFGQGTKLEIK

As to SETTTGTSSNSSQSTSNSGLAPNPTNATTKAAG (natural protein) [CD24-GST], in assay [1], the Kd (commonly the equilibrium constant for the complex coming apart) is 1.64 nM; the koff (as a rule, the first-order rate constant of dissociation) is 0.000764 s⁻¹; the kon (as a rule, a measure of how fast the partners come together) turned out to be 465000 M⁻¹ s⁻¹. Moreover, the Kd in assay [2] was 0.164 nM.
